Data taken from patent US20260070940A1 (Hoffmann-La Roche, published 2026).
Changes are numbered by the printed parent chain.

B1: anti-FAP aVH P034.090 (VHH)
VHH: EVQLVESGGGLVQPGGSLRLSCAASGFNIKDTCIGWVRRAPGKEEELVANICSSYGHTRYADSVKGRFTISADTSKNTAYLQMNSLRAEDTAVYYCASSYTIYRYSYWGQGTTVTVSS
B2: anti-FAP aVH P047.001 (VHH)
VHH: B1 VHH with S53G, S54K, Y55I, H57I, S98N, Y103V, S106D
B3: anti-FAP aVH P049.004 (VHH)
VHH: EVQLVESGGGLVQPGGSLRLSCAASSFNIKDTYIGWVRRAPGKEEELVANIYCNYGYTRYADSVKGRFTISCDTSKNTAYLQMNSLRAEDTAVYYCATSHTRYHYKYWGQGTTVTVSS
B4: LAG3 P10D1 aVH (VHH)
VHH: EVQLVESGGGLVQPGGSLRLSCAASGFSIKDTCIAWVRRAPGKGTELVAEICEDIGYTRYADSVKGRFTISADTSKNTAYLQMNSLRAEDTAVYYCAAKEAGVGFDYWGQGTTVTVSS
notes: also called P110D1
B5: SEQ ID NO 77 (VHH)
VHH: B4 VHH with S28N, A35G, E53T, K99G, A101G, G102S, V103S, D106H
notes: also called LAG3-specific aVH
B6: SEQ ID NO 79 (VHH)
VHH: B4 VHH with S28N, A35G, E53Q, K99D, A101S, G102V, V103D, G104N, D106K
notes: also called LAG3-specific aVH
B7: SEQ ID NO 83 (VHH)
VHH: B4 VHH with S28N, A35G, K99N, A101H, G102S, D106N
notes: also called LAG3-specific aVH
B8: SEQ ID NO 85 (VHH)
VHH: B4 VHH with S28N, A35G, E53Q, A98G, K99E, A101G, G102A, V103T, G104N, D106K
notes: also called LAG3-specific aVH
B9: SEQ ID NO 89 (VHH)
VHH: B4 VHH with S28N, A35G, E53T, I55A, K99S, A101S, G102P, V103S, D106R
notes: also called LAG3-specific aVH
B10: SEQ ID NO 91 (VHH)
VHH: B4 VHH with S28N, A35G, E53H, K99E, A101H, G102V, V103A, G104S, D106E
notes: also called LAG3-specific aVH
B11: SEQ ID NO 95 (VHH)
VHH: EVQLVESGGGLVQPGGSLRLSCAASGFNIKYQCIGWVRRAPGKGTELVAEICSYDGYTRYADSVKGRFTISADTSKNTAYLQMNSLRAEDTAVYYCAAEESVEGFIYWGQGTTVTVSS
notes: also called LAG3-specific aVH
B12: SEQ ID NO 97 (VHH)
VHH: B4 VHH with S28N, A35G, E53D, A98S, K99Q, A101H, G102Q, V103W, G104S, D106K
notes: also called LAG3-specific aVH
B13: anti-CEA aVH P112.083 (VHH)
VHH: EVQLVESGGGLVQPGGSLRLSCAASGFNIKDTCIGWVRRAPGKEEELVADICPYKGSTRYADSVKGRFTISADTSKNTAYLQMNSLRAEDTAVYYCAIVSARDGYYNYWGQGTTVTVSS
B14: anti-CEA aVH P112.068 (VHH)
VHH: B13 VHH with D50K, P53K, K55S, S57H, I98A, A101V, Y105H
B15: anti-CEA aVH P118.008 (VHH)
VHH: B13 VHH with D50Y, P53N, K55T, S57Y, V99T, A101Y, R102H, D103G, G104Q, Y105G
B16: anti-CEA aVH P118.093 (VHH)
VHH: B13 VHH with Y54S, K55Y, S57G, A101K, R102I, G104Q
B17: anti-CEA aVH P124.037 (VHH)
VHH: B13 VHH with D50Q, P53Q, K55H, S100G, A101Q, R102N, D103Y, G104P, Y105V
B18: anti-CEA aVH P124.067 (VHH)
VHH: B13 VHH with D50A, P53E, S57Y, V99A, A101P, R102V, G104Q
B19: anti-CEA aVH P127.141 (VHH)
VHH: B13 VHH with D50G, P53E, K55T, A101Q, R102S, D103R, G104S, Y105V
B20: anti-CEA aVH P118.089 (VHH)
VHH: EVQLVESGGGLVQPGGSLRLSCAASGFNIKDTCIGWVRRAPGKEEELVASICQYSGYTRYADSVKGRFTISADTSKNTAYLQMNSLRAEDTAVYYCAITSHHGDYNYWGQGTTVTVSS
B21: anti-CEA aVH P123.065 (VHH)
VHH: EVQLVESGGGLVQPGGSLRLSCAASGFNIKDSSTYIGWVRRAPGKEEELVASISCSRGNTRYADSVKGRFTISCDTSKNTAYLQMNSLRAEDTAVYYCAHPRYTWYDYWGQGTTVTVSS
B22: LAG3 P11A2 aVH (VHH)
VHH: EVQLVESGGGLVQPGGSLRLSCAASSFNIKDTYIGWVRRAPGKGTELVAEIACHEGTTRYADSVKGRFTISCDTSKNTAYLQMNSLRAEDTAVYYCANTEYDDIFDYWGQGTTVTVSS
B23: LAG3 9B4 aVH (VHH)
VHH: B4 VHH with S28N, A35G, E53Q, K99V, A101V, G102A, V103E, G104Y, D106E

Tests used:
[1] = molecular target: T1, human FAP avi his, biotinylated (human, UniProt Q12884 27-759, biotin on the avi-tag); assay: SPR, purified aVH, FAP immobilised
T1 construct: also called huFAP

[2] = molecular target: T2, murine FAP avi his, biotinylated (murine, UniProt P97321 27-761, biotin on the avi-tag); assay: SPR, bacterial supernatant;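 also: SPR at 25 °C with biotinylated human or murine FAP captured via neutravidin, aVH-containing bacterial supernatants diluted 1:3 as analyte, 600 s dissociation, blank supernatant without aVH as reference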
T2 construct: also called muFAP; mu FAP
Method: (§1) Clones that were identified in the “mix-and-read assay” performed with the Mirrorball instrument were further analyzed by Surface Plasmon Resonance (SPR). The off-rate of selected aVH clones was measured using a ProteOn XPR36 instrument (Biorad) at 25° C. with biotinylated human and murine FAP antigen immobilized on NLC chips by neutravidin capture. Immobilization of recombinant antigens (ligand): Antigens were diluted with PBST (10 mM phosphate, 150 mM sodium chloride pH 7.4, 0.005% Tween 20) to 10 μg/ml, then injected at 30 μl/minute at varying contact times, to achieve immobilization levels of 400, 800 or 1600 response units (RU) in vertical orientation. Injection of analytes: Injection direction was changed to horizontal orientation and 5 individual aVH-containing supernatants that were diluted 1:3 with PBST were injected simultaneously at 60 μl/min along separate channels 1-5, with association times between 120 and 180s, and dissociation times of 600s. Diluted bacterial supernatant without aVH was injected along the sixth channel to provide an “in-line” blank for referencing. Dissociation rate constants (koff) were calculated using the “koff-rate” calculation in ProteOn Manager v3.1 software.

[3] = molecular target: T1, human FAP avi his, biotinylated; assay: SPR, bacterial supernatant;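 also: SPR at 25 °C with biotinylated human or murine FAP captured via neutravidin, aVH-containing bacterial supernatants diluted 1:3 as analyte, 600 s dissociation, blank supernatant without aVH as reference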
Method: as §1

[4] = molecular target: T2, murine FAP avi his, biotinylated; assay: SPR, purified aVH, FAP immobilised
[5] = molecular target: T3, soluble human Lag3-IgG1-Fc with biotinylated C-terminal Avi-tag (human, biotin on the Avi-tag); assay: SPR, LAG3-Fc immobilised
T3 construct: Lag3 ECD, IEGRMD linker, IgG1 Fc, Avi-tag; also called LAG3-Fc-avi; biotinylated LAG3-Fc

[6] = molecular target: T3, soluble human Lag3-IgG1-Fc with …; assay: ELISA, supernatant on biotinylated antigen
[7] = molecular target: T4, full-length human CEA with N-terminal SNAP tag on transfected HEK293 cells (human, UniProt P06731 35-685, SNAP tag labelled with terbium); assay: FRET (TagLite) on hu CEA-SNAP cells
T4 construct: whole, on cells; also called hu CEA-SNAP; CEACAM5
T4 sequence (looked up): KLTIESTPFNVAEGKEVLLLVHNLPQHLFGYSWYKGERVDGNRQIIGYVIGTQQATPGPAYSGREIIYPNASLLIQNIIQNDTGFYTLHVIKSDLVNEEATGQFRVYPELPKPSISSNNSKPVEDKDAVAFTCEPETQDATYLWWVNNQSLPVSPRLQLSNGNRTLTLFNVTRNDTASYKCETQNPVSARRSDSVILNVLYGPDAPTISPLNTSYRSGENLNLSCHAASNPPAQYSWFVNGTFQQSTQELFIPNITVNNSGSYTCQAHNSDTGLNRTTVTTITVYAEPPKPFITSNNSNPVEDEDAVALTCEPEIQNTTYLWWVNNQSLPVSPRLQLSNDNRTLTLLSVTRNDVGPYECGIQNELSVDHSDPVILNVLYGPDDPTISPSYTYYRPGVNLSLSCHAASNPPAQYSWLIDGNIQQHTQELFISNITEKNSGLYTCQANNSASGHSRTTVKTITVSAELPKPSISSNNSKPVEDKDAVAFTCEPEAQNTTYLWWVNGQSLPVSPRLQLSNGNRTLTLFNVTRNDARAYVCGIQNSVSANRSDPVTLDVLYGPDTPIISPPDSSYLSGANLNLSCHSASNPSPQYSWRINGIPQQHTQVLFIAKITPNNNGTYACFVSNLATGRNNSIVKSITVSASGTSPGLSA
Method: Binding of a selected set of purified aVH binders to their epitope on CEA-expressing cells was determined by Fluorescence Resonance Energy Transfer (FRET) analysis. For this analysis, the DNA sequence encoding for the SNAP Tag (plasmid purchased from Cisbio) was amplified by PCR and ligated into an expression vector, containing the full length human CEA sequence. The resulting fusion protein was comprised of full-length CEA with an N-terminal SNAP tag. HEK293 cells were transfected with 10 μg DNA using Lipofectamine 2000 as transfection reagent. After an incubation time of 20 h, cells were washed with PBS and incubated for 1 h at 37° C. in LabMed buffer (Cisbio) containing 100 nM SNAP-Lumi4Tb (Cibsio), leading to specific labeling of the SNAP Tag. Subsequently, cells were washed 4 times with LabMed buffer to remove unbound dye. […] Cells were then stored frozen at −80° C. for up to 6 months. Binding was measured by adding CEA-specific aVH binders at a concentration ranging from 0.005 up to 100 nM to labeled cells (100 cells per well) followed by addition of d2-labeled anti-his tag antibody (Cisbio, final concentration was 200 nM per well) as acceptor molecule for the FRET. […] The ratio of acceptor to donor emission was calculated and the ratio of the background control (cells only incubated with anti-his tag antibody) subtracted. Curves were analysed in GraphPad Prism5 (FIG. 9) and KDs calculated (Table 26).

[8] = molecular target: T5, hu(NA1)BA-avi-His, biotinylated (human, biotin on the avi-tag); assay: SPR, bacterial supernatant
T5 construct: CEACAM5 domains N and A1 followed by two CEACAM1 Ig domains, avi-tag and his-tag; also called CEA antigen; chimera of CEACAM5 domains N and A1 on CEACAM1
T5 chain: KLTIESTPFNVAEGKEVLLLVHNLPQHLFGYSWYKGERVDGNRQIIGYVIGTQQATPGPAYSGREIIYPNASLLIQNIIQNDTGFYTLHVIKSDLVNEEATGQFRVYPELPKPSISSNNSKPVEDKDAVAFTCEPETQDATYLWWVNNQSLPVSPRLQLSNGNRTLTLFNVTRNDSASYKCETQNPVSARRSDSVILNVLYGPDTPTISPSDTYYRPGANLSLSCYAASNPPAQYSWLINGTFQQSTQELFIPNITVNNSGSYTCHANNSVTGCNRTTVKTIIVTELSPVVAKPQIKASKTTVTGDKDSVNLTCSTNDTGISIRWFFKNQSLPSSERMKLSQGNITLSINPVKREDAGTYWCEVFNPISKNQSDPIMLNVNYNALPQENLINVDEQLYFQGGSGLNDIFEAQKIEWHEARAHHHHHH
Method: The off-rate of selected aVH clones was measured using a ProteOn XPR36 instrument (Biorad) at 25° C. with biotinylated hu(NA1)BA-avi-His immobilized on NLC chips by neutravidin capture. CEACAM1-avi-his was used as a negative control. Immobilization of recombinant antigens (ligand): Antigens were diluted with PBST (10 mM phosphate, 150 mM sodium chloride pH 7.4, 0.005% Tween 20) to 10 μg/ml, then injected at 30 μl/minute at varying contact times, to achieve immobilization levels of 400, 800 or 1600 response units (RU) in vertical orientation. Injection of analytes: Injection direction was changed to horizontal orientation and 5 individual aVH-containing supernatants that were diluted 1:3 with PBST were injected simultaneously at 60 μl/min along separate channels 1-5, with association times between 120 and 180s, and dissociation times of 800s. Diluted bacterial supernatant without aVH was injected along the sixth channel to provide an “in-line” blank for referencing. Dissociation rate constants (koff) were calculated using the “koff-rate” calculation in ProteOn Manager v3.1 software.

[9] = molecular target: T5, hu(NA1)BA-avi-His, biotinylated; assay: SPR, purified aVH
Method: CEACAM1-avi-his was again used as a negative control Immobilization of recombinant antigens (ligand): Antigen was diluted with PBST (10 mM phosphate, 150 mM sodium chloride pH 7.4, 0.005% Tween 20) to 10 μg/ml, then injected at 30 μl/minute at varying contact times, to achieve immobilization levels of 200, 400 or 800 response units (RU) in vertical orientation. […] Buffer (PBST) was injected along the sixth channel to provide an “in-line” blank for referencing. Association rate constants (kₒₙ) and dissociation rate constants (koff) were calculated using a simple one-to-one Langmuir binding model in ProteOn Manager v3.1 software by simultaneously fitting the association and dissociation sensorgrams. The equilibrium dissociation constant (KD) was calculated as the ratio koff/kₒₙ.

T3 sequence (chain, as listed by the source limits assumed): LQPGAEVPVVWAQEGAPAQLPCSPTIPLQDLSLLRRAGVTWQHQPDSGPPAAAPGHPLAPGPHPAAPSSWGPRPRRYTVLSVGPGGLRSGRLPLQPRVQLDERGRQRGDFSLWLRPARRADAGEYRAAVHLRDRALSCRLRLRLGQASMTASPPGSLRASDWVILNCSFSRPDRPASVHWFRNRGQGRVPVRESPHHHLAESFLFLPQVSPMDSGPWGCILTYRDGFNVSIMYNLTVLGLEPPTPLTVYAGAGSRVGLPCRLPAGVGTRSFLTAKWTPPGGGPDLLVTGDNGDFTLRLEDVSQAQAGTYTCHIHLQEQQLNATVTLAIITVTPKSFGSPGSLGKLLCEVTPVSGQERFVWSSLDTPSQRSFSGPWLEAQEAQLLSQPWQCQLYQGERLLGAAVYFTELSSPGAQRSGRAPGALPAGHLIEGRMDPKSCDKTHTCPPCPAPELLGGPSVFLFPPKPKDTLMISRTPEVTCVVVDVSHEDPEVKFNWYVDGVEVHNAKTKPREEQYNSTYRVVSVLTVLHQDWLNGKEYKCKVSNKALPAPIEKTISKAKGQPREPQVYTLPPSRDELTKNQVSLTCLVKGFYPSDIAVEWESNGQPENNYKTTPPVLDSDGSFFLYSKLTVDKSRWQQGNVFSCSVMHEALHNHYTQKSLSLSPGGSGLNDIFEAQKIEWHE

Row | Binder | binding result [6] | Kd [7] [nM] | koff [8] [s⁻¹] | Kd [9] [nM] | also measured
1 | B1 | – | – | – | – | Kd [1]: 0.846 nM; koff [1]: 0.00046 s⁻¹; kon [1]: 552000 M⁻¹ s⁻¹; koff [2]: 0.0255 s⁻¹; koff [3]: 0.00107 s⁻¹
2 | B2 | – | – | – | – | Kd [4]: 24.5 nM; koff [4]: 0.00784 s⁻¹; kon [4]: 320000 M⁻¹ s⁻¹; Kd [1]: 1.15 nM; koff [1]: 0.00133 s⁻¹; kon [1]: 1.15e+06 M⁻¹ s⁻¹; koff [2]: 0.0157 s⁻¹; koff [3]: 0.00542 s⁻¹
3 | B3 | – | – | – | – | Kd [4]: 23 nM; koff [4]: 0.00102 s⁻¹; kon [4]: 51000 M⁻¹ s⁻¹; koff [2]: 0.00207 s⁻¹; koff [3]: 0.00508 s⁻¹
4 | B4 | – | – | – | – | Kd [5]: 27 nM; koff [5]: 0.00383 s⁻¹; kon [5]: 144000 M⁻¹ s⁻¹
5 | B5 | binds | – | – | – | –
6 | B6 | binds | – | – | – | –
7 | B7 | binds | – | – | – | –
8 | B8 | binds | – | – | – | –
9 | B9 | binds | – | – | – | –
10 | B10 | binds | – | – | – | –
11 | B11 | binds | – | – | – | –
12 | B12 | binds | – | – | – | –
13 | B13 | – | 10.4 | 0.00034 | 7.26 | –
14 | B14 | – | 14.6 | 0.0016 | 16.2 | –
15 | B15 | – | 28.6 | 0.0305 | 96.2 | –
16 | B16 | – | 47.3 | 0.033 | 102 | –
17 | B17 | – | 11.1 | 0.0395 | 15.2 | –
18 | B18 | – | 74.3 | 0.00704 | 296 | –
19 | B19 | – | 28.3 | 0.0317 | 135 | –
20 | B20 | – | 16.8 | 0.0599 | 37.9 | –
21 | B21 | – | 190 | 0.0278 | 89.1 | –
22 | B22 | – | – | – | – | Kd [5]: 55 nM; koff [5]: 0.0138 s⁻¹; kon [5]: 251000 M⁻¹ s⁻¹
23 | B23 | – | – | – | – | Kd [5]: 86 nM; koff [5]: 0.00314 s⁻¹; kon [5]: 36500 M⁻¹ s⁻¹
